Article doi:10.1101/196097

Key:
[1] = target: Calcium-independent phospholipase A2β, short variant (SH-iPLA2β), wild type (Chinese hamster (cloned from CHO cells)); assay: AUC
[2] = target: Fluorescein (FAM)-labeled calmodulin T34C (UniProt P0DP23); assay: fluorescence polarisation
[3] = target: FAM-labeled synthetic peptide corresponding to the IQ motif of iPLA2β; assay: fluorescence polarisation
[4] = target: FAM-labeled synthetic peptide corresponding to the 1-9-14 motif of iPLA2β; assay: fluorescence polarisation

stoichiometry N [1] | Kd [2] | Kd [3] | Kd [4] | Substance
2 | 0.112 µM | – | – | Calcium-independent phospholipase A2β, short variant (SH-iPLA2β), wild type (from UniProt A0A3L7I2I8 1-807) (enzyme)
– | – | 5.9 µM | 2.5 µM | Calmodulin (from UniProt P0DP23 1-149) (natural protein)
– | > 1.4 µM | – | – | iPLA2β W695E mutant (from UniProt A0A3L7I2I8 1-807) (enzyme)
